In US20220380459A1 (DRAGONFLY THERAPEUTICS, published 2022):

B1: A49.H76 (bispecific antibody)
NKG2D-binding VH: EVQLVESGGGLVKPGGSLRLSCAASGFTFSSYSMNWVRQAPGKGLEWVSSISSSSSYIYYADSVKGRFTISRDNAKNSLYLQMNSLRAEDTAVYYCARGAPMGAAAGWFDPWGQGTLVTVSS
NKG2D-binding VL: DIQMTQSPSSVSASVGDRVTITCRASQGISSWLAWYQQKPGKAPKLLIYAASSLQSGVPSRFSGSGSGTDFTLTISSLQPEDFATYYCQQGVSFPRTFGGGTKVEIK
CD33-binding VH: EVQLLESGGGLVQPGGSLRLSCAASGFTFSKYTMSWVRQAPGKGLEWVSAIVGSGESTYFADSVKGRFTISRDNSKNTLYLQMNSLRAEDTAVYYCAREGGPYYDSSGYFVYYGMDVWGQGTTVTVSS
CD33-binding VL: DIQMTQSPSTLSASVGDRVTITCRASQSISSWLAWYQQKPGKAPKLLIYKASSLESGVPSRFSGSGSGTEFTLTISSLQPDDFATYYCQQYDDLPTFGGGTKVEIK
B2: C26.H76 (bispecific antibody)
NKG2D-binding VH: QVQLQQWGAGLLKPSETLSLTCAVYGGSFSGYYWSWIRQPPGKGLEWIGEIDHSGSTNYNPSLKSRVTISVDTSKNQFSLKLSSVTAADTAVYYCARARGPWSFDPWGQGTLVTVSS
NKG2D-binding VL: DIQMTQSPSTLSASVGDRVTITCRASQSISSWLAWYQQKPGKAPKLLIYKASSLESGVPSRFSGSGSGTEFTLTISSLQPDDFATYYCQQYGSFPITFGGGTKVEIK
CD33-binding VH: EVQLLESGGGLVQPGGSLRLSCAASGFTFSKYTMSWVRQAPGKGLEWVSAIVGSGESTYFADSVKGRFTISRDNSKNTLYLQMNSLRAEDTAVYYCAREGGPYYDSSGYFVYYGMDVWGQGTTVTVSS
CD33-binding VL: DIQMTQSPSTLSASVGDRVTITCRASQSISSWLAWYQQKPGKAPKLLIYKASSLESGVPSRFSGSGSGTEFTLTISSLQPDDFATYYCQQYDDLPTFGGGTKVEIK
B3: A40.G59 (bispecific antibody)
NKG2D-binding VH: QVQLQQWGAGLLKPSETLSLTCAVYGGSFSGYYWSWIRQPPGKGLEWIGEIDHSGSTNYNPSLKSRVTISVDTSKNQFSLKLSSVTAADTAVYYCARARGPWSFDPWGQGTLVTVSS
NKG2D-binding VL: DIQMTQSPSTLSASVGDRVTITCRASQSIGSWLAWYQQKPGKAPKLLIYKASSLESGVPSRFSGSGSGTEFTLTISSLQPDDFATYYCQQYHSFYTFGGGTKVEIK
CD33-binding VH: EVQLVESGGGLVQPGGSLRLSCAASGFTFSSYGMSWVRQAPGKGLEWVANIKQDGSEKYYVDSVKGRFTISRDNAKNSLYLQMNSLRAEDTAVYYCAREGGPYYDSSGYFVYYGMDVWGQGTTVTVSS
CD33-binding VL: DIQMTQSPSTLSASVGDRVTITCRASQSISSWLAWYQQKPGKAPKLLIYDASSLESGVPSRFSGSGSGTEFTLTISSLQPDDFATYYCQQYESFPTFGGGTKVEIK
B4: A49.I35 (bispecific antibody)
NKG2D-binding VH: EVQLVESGGGLVKPGGSLRLSCAASGFTFSSYSMNWVRQAPGKGLEWVSSISSSSSYIYYADSVKGRFTISRDNAKNSLYLQMNSLRAEDTAVYYCARGAPMGAAAGWFDPWGQGTLVTVSS
NKG2D-binding VL: DIQMTQSPSSVSASVGDRVTITCRASQGISSWLAWYQQKPGKAPKLLIYAASSLQSGVPSRFSGSGSGTDFTLTISSLQPEDFATYYCQQGVSFPRTFGGGTKVEIK
CD33-binding VH: QLQLQESGPGLVKPSETLSLTCTVSGGSISSTDYYWGWIRQPPGKGLEWIGSIGYSGTYYNPSLKSRVTISVDTSKNQFSLKLSSVTAADTAVYYCARETAHDVHGMDVWGQGTTVTVSS
CD33-binding VL: EIVLTQSPATLSLSPGERATLSCRASHSVYSYLAWYQQKPGQAPRLLIYDASNRATGIPARFSGSGSGTDFTLTISSLEPEDFAVYYCQQYDNLPTFGGGTKVEIK
B5: A40.H76 (bispecific antibody)
NKG2D-binding VH: QVQLQQWGAGLLKPSETLSLTCAVYGGSFSGYYWSWIRQPPGKGLEWIGEIDHSGSTNYNPSLKSRVTISVDTSKNQFSLKLSSVTAADTAVYYCARARGPWSFDPWGQGTLVTVSS
NKG2D-binding VL: DIQMTQSPSTLSASVGDRVTITCRASQSIGSWLAWYQQKPGKAPKLLIYKASSLESGVPSRFSGSGSGTEFTLTISSLQPDDFATYYCQQYHSFYTFGGGTKVEIK
CD33-binding VH: EVQLLESGGGLVQPGGSLRLSCAASGFTFSKYTMSWVRQAPGKGLEWVSAIVGSGESTYFADSVKGRFTISRDNSKNTLYLQMNSLRAEDTAVYYCAREGGPYYDSSGYFVYYGMDVWGQGTTVTVSS
CD33-binding VL: DIQMTQSPSTLSASVGDRVTITCRASQSISSWLAWYQQKPGKAPKLLIYKASSLESGVPSRFSGSGSGTEFTLTISSLQPDDFATYYCQQYDDLPTFGGGTKVEIK
B6: A49.I07 (bispecific antibody)
NKG2D-binding VH: EVQLVESGGGLVKPGGSLRLSCAASGFTFSSYSMNWVRQAPGKGLEWVSSISSSSSYIYYADSVKGRFTISRDNAKNSLYLQMNSLRAEDTAVYYCARGAPMGAAAGWFDPWGQGTLVTVSS
NKG2D-binding VL: DIQMTQSPSSVSASVGDRVTITCRASQGISSWLAWYQQKPGKAPKLLIYAASSLQSGVPSRFSGSGSGTDFTLTISSLQPEDFATYYCQQGVSFPRTFGGGTKVEIK
CD33-binding VH: EVQLVESGGGLVQPGGSLRLSCAASGFTFGSYWMSWVRQAPGKGLEWVATIKQDGSEKSYVDSVKGRFTISRDNAKNSLYLQMNSLRAEDTAVYYCARPLNAGELDVWGQGTMVTVSS
CD33-binding VL: DIQMTQSPSTLSASVGDRVTITCRASQSISSWLAWYQQKPGKAPKLLIYEASSLESGVPSRFSGSGSGTEFTLTISSLQPDDFATYYCQQSQSYPPITFGGGTKVEIK
B7: C26.I07 (bispecific antibody)
NKG2D-binding VH: QVQLQQWGAGLLKPSETLSLTCAVYGGSFSGYYWSWIRQPPGKGLEWIGEIDHSGSTNYNPSLKSRVTISVDTSKNQFSLKLSSVTAADTAVYYCARARGPWSFDPWGQGTLVTVSS
NKG2D-binding VL: DIQMTQSPSTLSASVGDRVTITCRASQSISSWLAWYQQKPGKAPKLLIYKASSLESGVPSRFSGSGSGTEFTLTISSLQPDDFATYYCQQYGSFPITFGGGTKVEIK
CD33-binding VH: EVQLVESGGGLVQPGGSLRLSCAASGFTFGSYWMSWVRQAPGKGLEWVATIKQDGSEKSYVDSVKGRFTISRDNAKNSLYLQMNSLRAEDTAVYYCARPLNAGELDVWGQGTMVTVSS
CD33-binding VL: DIQMTQSPSTLSASVGDRVTITCRASQSISSWLAWYQQKPGKAPKLLIYEASSLESGVPSRFSGSGSGTEFTLTISSLQPDDFATYYCQQSQSYPPITFGGGTKVEIK
B8: C26.I35 (bispecific antibody)
NKG2D-binding VH: QVQLQQWGAGLLKPSETLSLTCAVYGGSFSGYYWSWIRQPPGKGLEWIGEIDHSGSTNYNPSLKSRVTISVDTSKNQFSLKLSSVTAADTAVYYCARARGPWSFDPWGQGTLVTVSS
NKG2D-binding VL: DIQMTQSPSTLSASVGDRVTITCRASQSISSWLAWYQQKPGKAPKLLIYKASSLESGVPSRFSGSGSGTEFTLTISSLQPDDFATYYCQQYGSFPITFGGGTKVEIK
CD33-binding VH: QLQLQESGPGLVKPSETLSLTCTVSGGSISSTDYYWGWIRQPPGKGLEWIGSIGYSGTYYNPSLKSRVTISVDTSKNQFSLKLSSVTAADTAVYYCARETAHDVHGMDVWGQGTTVTVSS
CD33-binding VL: EIVLTQSPATLSLSPGERATLSCRASHSVYSYLAWYQQKPGQAPRLLIYDASNRATGIPARFSGSGSGTDFTLTISSLEPEDFAVYYCQQYDNLPTFGGGTKVEIK
B9: C26.G59 (bispecific antibody)
NKG2D-binding VH: QVQLQQWGAGLLKPSETLSLTCAVYGGSFSGYYWSWIRQPPGKGLEWIGEIDHSGSTNYNPSLKSRVTISVDTSKNQFSLKLSSVTAADTAVYYCARARGPWSFDPWGQGTLVTVSS
NKG2D-binding VL: DIQMTQSPSTLSASVGDRVTITCRASQSISSWLAWYQQKPGKAPKLLIYKASSLESGVPSRFSGSGSGTEFTLTISSLQPDDFATYYCQQYGSFPITFGGGTKVEIK
CD33-binding VH: EVQLVESGGGLVQPGGSLRLSCAASGFTFSSYGMSWVRQAPGKGLEWVANIKQDGSEKYYVDSVKGRFTISRDNAKNSLYLQMNSLRAEDTAVYYCAREGGPYYDSSGYFVYYGMDVWGQGTTVTVSS
CD33-binding VL: DIQMTQSPSTLSASVGDRVTITCRASQSISSWLAWYQQKPGKAPKLLIYDASSLESGVPSRFSGSGSGTEFTLTISSLQPDDFATYYCQQYESFPTFGGGTKVEIK
B10: F47.H76 (bispecific antibody)
NKG2D-binding VH: QVQLQQWGAGLLKPSETLSLTCAVYGGSFSGYYWSWIRQPPGKGLEWIGEIDHSGSTNYNPSLKSRVTISVDTSKNQFSLKLSSVTAADTAVYYCARARGPWSFDPWGQGTLVTVSS
NKG2D-binding VL: DIQMTQSPSTLSASVGDRVTITCRASQSISSWLAWYQQKPGKAPKLLIYKASSLESGVPSRFSGSGSGTEFTLTISSLQPDDFATYYCQQYDTFITFGGGTKVEIK
CD33-binding VH: EVQLLESGGGLVQPGGSLRLSCAASGFTFSKYTMSWVRQAPGKGLEWVSAIVGSGESTYFADSVKGRFTISRDNSKNTLYLQMNSLRAEDTAVYYCAREGGPYYDSSGYFVYYGMDVWGQGTTVTVSS
CD33-binding VL: DIQMTQSPSTLSASVGDRVTITCRASQSISSWLAWYQQKPGKAPKLLIYKASSLESGVPSRFSGSGSGTEFTLTISSLQPDDFATYYCQQYDDLPTFGGGTKVEIK
B11: F47.G59 (bispecific antibody)
NKG2D-binding VH: QVQLQQWGAGLLKPSETLSLTCAVYGGSFSGYYWSWIRQPPGKGLEWIGEIDHSGSTNYNPSLKSRVTISVDTSKNQFSLKLSSVTAADTAVYYCARARGPWSFDPWGQGTLVTVSS
NKG2D-binding VL: DIQMTQSPSTLSASVGDRVTITCRASQSISSWLAWYQQKPGKAPKLLIYKASSLESGVPSRFSGSGSGTEFTLTISSLQPDDFATYYCQQYDTFITFGGGTKVEIK
CD33-binding VH: EVQLVESGGGLVQPGGSLRLSCAASGFTFSSYGMSWVRQAPGKGLEWVANIKQDGSEKYYVDSVKGRFTISRDNAKNSLYLQMNSLRAEDTAVYYCAREGGPYYDSSGYFVYYGMDVWGQGTTVTVSS
CD33-binding VL: DIQMTQSPSTLSASVGDRVTITCRASQSISSWLAWYQQKPGKAPKLLIYDASSLESGVPSRFSGSGSGTEFTLTISSLQPDDFATYYCQQYESFPTFGGGTKVEIK

Target: T1, human CD33 expressed on cells (human, UniProt P20138 18-364)
T1 construct: endogenous CD33 of human AML cell lines and blood monocytes; also called cell-expressed CD33 (Molm-13, Mv4-11, monocytes)
T1 sequence (P20138 18-364): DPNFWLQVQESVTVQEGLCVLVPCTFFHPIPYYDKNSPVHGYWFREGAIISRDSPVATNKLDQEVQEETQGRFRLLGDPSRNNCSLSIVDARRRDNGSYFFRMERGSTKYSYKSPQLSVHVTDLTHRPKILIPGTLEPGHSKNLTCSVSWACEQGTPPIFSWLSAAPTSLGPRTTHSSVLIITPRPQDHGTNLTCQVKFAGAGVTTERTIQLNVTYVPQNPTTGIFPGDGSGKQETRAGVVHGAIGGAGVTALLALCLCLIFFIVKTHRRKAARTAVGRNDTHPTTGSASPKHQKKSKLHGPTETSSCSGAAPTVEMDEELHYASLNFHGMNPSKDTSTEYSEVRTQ
Experiment: flow cytometry on Molm-13 cells, fluorophore-conjugated anti-human IgG secondary antibody, MFI as fold over background (FOB)
Method: Binding of the TriNKET was detected using a fluorophore conjugated anti-human IgG secondary antibody. Cells were analyzed by flow cytometry, binding MFI to cell expressed CD33 was normalized to secondary antibody controls to obtain fold over background values.

Binding result, binds:
B1, B2, B3, B4, B5, B6, B7, B8, B9, B10, B11
